B1: No. 8 anti-Ang2 antibody (IgG) (antibody, V domains shown)
VH: QVQLVESGGGLVKPGGSLRLSCAASGFTFSSYSMNWVRQAPGKGLEWVSSISASDGATYYADSVRGRFTISRDNSRSTLYLQMNSLRAEDTAVYYCAKILAGYSGPMGGMDVWGQGTTVTVSS
VL: DIQMTQSPSSLSASVGDRVTITCRASRDISNYLAWYQQKPGKAPKSLIYGASNLQSGVSSQFSGSGSGTDFTLTINSLQPEDSATYYCQQYYSYPLTFGGGTKVDIKR
notes: IgG form: VH cloned into Invivogen pfusess-hchg1, VL into Invivogen pfuse2ss-hclk; also called 3A10
B2: No. 3 anti-Ang2 antibody (IgG) (antibody, V domains shown)
VH: QMQLVQSGGGLVQPGRSLKLSCAASGFSFDDYAMHWVRQAPGKGLEWVATIKDDGSQTYYVDSVKGRFTISRDNAKSSLFLQMNSLRAEDTAVYYCTTEGLMNGLHFDMWGQGTMVTVSS
VL: LVLTQPPSVSGAPGQGVTISCTGSSSNIGAGYDVHWYQQFPGTAPKLLISGNNNRPSGLPDRFSGSKSGTSASLAITGLQAEDEADYYCQSYDSRLGVVFGGGTKLTVLG
notes: IgG form: VH cloned into Invivogen pfusess-hchg1 (heavy chain constant region), VL into Invivogen pfuse2ss-hclk (light chain constant region); Expressed in Expi293F, purified on Protein A; also called 1D10
B3: No. 4 anti-Ang2 antibody (IgG) (antibody, V domains shown)
VH: QVQLVESGAEVKRPGESLRISCKTSGYSFTSYWIHWVRQMPGKELEWMGSIYPGNSDTRYSPSFQGHVTISADSSSSTAYLQWSSLKASDTAMYYCTTEGLMNGLHFDMWGQGTMVTVSS
VL: DIVMTQTPLSLPVTPGEPASISCRSSQSLLHSLGDNYLDWYLQKPGQSPQLLIYLGSKRAAGVPDRFSGSGSGTDFTLKISRVEAEDVGVYYCMQSLQTPPYTFGQGTKLEIKR
notes: IgG form: VH cloned into Invivogen pfusess-hchg1, VL into Invivogen pfuse2ss-hclk; also called 2D8
B4: No. 46 anti-Ang2 antibody (IgG) (antibody, V domains shown)
VH: QVQLVESGGGLVQPGRSLRLSCAASGFTFDDCAMHWVRQAPGKGLEWVSGISGNSKNVAYADSVKGRFSISRDDAKNSLYLQMNSLRAEDTAVYYCARDPAYSQFDYWGQGTLITVSS
VL: QSALTQPPSLSATPGQRVTISCSGSSSNVGGYPVNWYQQVPGAAPKLLMYTDYKRPSGVPDRFFGSKSGTSASLAISGLQSEDEADYYCATWDDNLNGYVFGTGTKVTVLG
notes: IgG form: VH cloned into Invivogen pfusess-hchg1, VL into Invivogen pfuse2ss-hclk; also called 3C6
B5: No. 41 anti-Ang2 antibody (IgG) (antibody, V domains shown)
VH: QVQLVESGGGLVQPGGSLRLSCEASGFAFGRYEMNWVRQAPGKGLEWIAYIDTGGGAKVYADSVKGRFTISRDDSKNSLYLQMNSLRAEDTAVYYCTTEGLMNGLHFDMWGQGTMITVSS
VL: DIQMTQSPSTLSASVGDRVAITCRASQAISTWLAWYQQKPGKAPKLLIYTASTLESGVPSRFSGSGSGTDFTLTINSLQPDDFATYYCQQLNSYPYTFGGGTKVEIKR
notes: IgG form: VH cloned into Invivogen pfusess-hchg1, VL into Invivogen pfuse2ss-hclk; also called 2B2

What follows are binders tested against T1, biotinylated human Ang2 protein (human, UniProt O15123 19-496, limits assumed, biotinylated (sites not given)) (assay: competition ELISA: antibody preincubated with biotinylated hAng2, binding to coated integrin α3/β1).
T1 construct: also called hAng2
T1 sequence (looked up): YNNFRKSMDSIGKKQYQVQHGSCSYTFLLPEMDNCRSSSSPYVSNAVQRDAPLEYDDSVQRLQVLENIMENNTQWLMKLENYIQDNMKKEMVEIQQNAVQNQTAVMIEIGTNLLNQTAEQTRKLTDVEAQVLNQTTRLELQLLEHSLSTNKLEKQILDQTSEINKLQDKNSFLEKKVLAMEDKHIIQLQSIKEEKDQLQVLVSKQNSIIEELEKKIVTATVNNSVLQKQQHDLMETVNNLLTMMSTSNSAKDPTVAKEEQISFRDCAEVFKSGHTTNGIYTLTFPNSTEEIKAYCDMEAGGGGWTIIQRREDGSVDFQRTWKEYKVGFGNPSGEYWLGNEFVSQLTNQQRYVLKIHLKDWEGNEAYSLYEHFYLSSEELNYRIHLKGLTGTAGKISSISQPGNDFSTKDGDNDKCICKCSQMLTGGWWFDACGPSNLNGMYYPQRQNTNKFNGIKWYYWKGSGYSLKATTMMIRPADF
Method: 1 μg/ml (100 μl per well) of a human Ti32-Fc (R&D Systems, 313-TI) or mouse Tie2-Fc (R&D Systems, 762-T2-100) solution, an integrin α3/β1 solution (R&D systems, 2840-A3-050), or an integrin α5/β1 solution (R&D systems, 3230-A5-050) was added to a 96-well immunoplate (Nunc, US) and then allowed to stand overnight at 4° C. for adsorption. The next day, the plate was washed four times with PBS containing 0.05% Tween-20 (hereinafter, referred to as PBST), and 200 μl of a 2% BSA/PBST solution was added to each well and then allowed to stand at room temperature for 1 hour to perform blocking. Anti-Ang2 candidate antibodies were serially diluted 4-fold at a maximum of 1000 nM, and biotinylated human Ang2 protein was made to a final concentration of 100 ng/mL or 625 ng/mL, followed by previous binding at room temperature for 1 hour. […] The plate was washed three times with PBST, 100 μl of HRP-conjugated streptavidin (R&D Systems, DY998) diluted to 1:200 was added to allow a reaction to occur at room temperature for 1 hour, thereby inducing binding, and the plate was washed four times with PBST, followed by color development using 100 μl of a TMB substrate reagent. The color development reaction was stopped by adding 50 μl of 2N H₂SO₄, and a Sunrise microplate reader (TECAN, CH) was used to measure specific absorbance OD₄₅₀ (FIGS. 4 and 5).

Binder	IC50 [nM]
B1	4.68
B2	2.5
B3	2.42
B4	4.39
B5	2.43
